# Measurements taken from publication PMC9891525 (2023).
# Molecular target: biotinylated recombinant SARS-CoV-2 wild type spike RBD (SARS-CoV-2, UniProt P0DTC2 319-541)
# Assay: FACS
binder,measurement,value
"REGN10987 scFv displayed on the surface of HEK 293T cells (scFv, V domains shown) VH: QVQLVESGGGVVQPGRSLRLSCAASGFTFSNYAMYWVRQAPGKGLEWVAVISYDGSNKYYADSVKGRFTISRDNSKNTLYLQMNSLRTEDTAVYYCASGSDYGDYLLVYWGQGTLVTVSS VL: QSALTQPASVSGSPGQSITISCTGTSSDVGGYNYVSWYQQHPGKAPKLMIYDVSKRPSGVSNRFSGSKSGNTASLTISGLQSEDEADYYCNSLTSISTWVFGGGTKLTVL",Kd,8.33 nM
